Data published in paper PMC11272584 (Nature Metabolism, 2024).
Blank lines part the entries; values can stand above or below the molecule they belong to.

Assays:
GIPR R183Q = target: T1, GIPR R183Q (Homo sapiens, UniProt P48546, R183Q); assay: cAMP accumulation; format: cell-based
T1 construct: host or cells: HEK293
T1 sequence (P48546 22-466 R183Q): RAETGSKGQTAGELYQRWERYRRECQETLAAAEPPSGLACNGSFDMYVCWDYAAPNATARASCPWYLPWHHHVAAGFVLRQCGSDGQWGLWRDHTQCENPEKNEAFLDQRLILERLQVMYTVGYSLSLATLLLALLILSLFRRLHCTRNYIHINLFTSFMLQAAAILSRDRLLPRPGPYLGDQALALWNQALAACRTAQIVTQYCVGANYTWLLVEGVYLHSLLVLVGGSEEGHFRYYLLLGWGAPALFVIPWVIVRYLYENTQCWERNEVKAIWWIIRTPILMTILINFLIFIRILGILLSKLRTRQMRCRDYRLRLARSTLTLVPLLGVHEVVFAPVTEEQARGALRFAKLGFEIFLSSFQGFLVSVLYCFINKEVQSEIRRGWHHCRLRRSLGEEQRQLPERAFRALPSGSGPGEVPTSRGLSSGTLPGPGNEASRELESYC
Method: (§1) HEK293 (CRL-1573, American Type Culture Collection) and β-arrestin 1/2 knockout cells, generated from HEK293A[48], were used for cAMP measurement, homologues competition binding and β-arrestin 2 recruitment. […] Both cell lines were cultured at 5% CO2 at 37 °C in Roswell Park Memorial Institute GlutaMAX-I supplemented with 10% fetal bovine serum, 180 units ml^−1 penicillin, and 45 g ml^−1 streptomycin. For the cAMP and binding experiments, cells were transfected with the calcium phosphate precipitation method[49].
(§2) cAMP production was measured with the DiscoverX Hithunter cAMP assay according to the manufacturer’s protocol (DiscoverX). […] On the day of the assay, the cells were washed twice with HEPES-buffered saline (HBS) and incubated with HBS and 1 mM 3-isobutyl-1-methylxanthine for 30 min at 37 °C. […] After the incubation, the assay medium was removed from the plate and the cells were washed with 30 µl PBS and treated with 40 µl enzyme donor–lysis buffer–chemiluminescent reagents and 10 µl cAMP antibodies for 60 min before 40 µl enzyme acceptor solution added. After a 3-h incubation on a shaking table in the dark, the cAMP accumulation was measured based on luminescence with a Perkin Elmer EnVision 2104 Multilabel Microplate Reader.

GIPR variants (groups) [1] = assay: cAMP accumulation; format: cell-based, human; settings: for In vitro groups (cAMP): cAMP part of the in vitro group; for percentage_camp: cAMP production compared with WT; for Beta, cAMP: in vitro cAMP production per GIPR variant
GIPR variants (groups) [2] = assay: β-arrestin 2 recruitment (BRET); settings: for In vitro groups (β-arrestin): arr part of the in vitro group; for Beta, Barr: in vitro β-arrestin recruitment per GIPR variant;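 for all read-outs here: BRET readout of β-arrestin 2 recruitment in transiently transfected HEK293 cells expressing WT GIPR or a GIPR variant plus GPCR kinase 2, Rluc8 donor and citrine acceptor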
Method: Both cell lines were cultured at 5% CO2 at 37 °C in Roswell Park Memorial Institute GlutaMAX-I supplemented with 10% fetal bovine serum, 180 units ml^−1 penicillin, and 45 g ml^−1 streptomycin. […] The polyethyleneimine (PEI) transfection method was used for the β-arrestin 2 recruitment assays[50], endosomal signalling and basal receptor localization assays, while the lipofectamine transfection method was used for the internalization assay.
Measurement of β-arrestin 2 recruitment was performed with a BRET assay. Two days before the assay, the HEK293 cells were transiently transfected with either WT GIPR or the GIPR variants together with the donor Rluc8-Arrestin-3-Sp1, the acceptor mem-linker-citrine-SH3 and the GPCR kinase 2 to facilitate β-arrestin 2 recruitment. On assay day, the cells were washed with PBS and resuspended in PBS supplemented with 5 mmol l^−1 glucose. Subsequently, 85 µl of the cell suspension was transferred to a white 96-well plate and 10 µl of 50 µM coelenterazine-h was added.

GIPR P195R = target: T2, GIPR P195R (Homo sapiens, UniProt P48546, P195R); assay: cAMP accumulation; format: cell-based
T2 construct: host or cells: HEK293
T2 sequence (P48546 22-466 P195R): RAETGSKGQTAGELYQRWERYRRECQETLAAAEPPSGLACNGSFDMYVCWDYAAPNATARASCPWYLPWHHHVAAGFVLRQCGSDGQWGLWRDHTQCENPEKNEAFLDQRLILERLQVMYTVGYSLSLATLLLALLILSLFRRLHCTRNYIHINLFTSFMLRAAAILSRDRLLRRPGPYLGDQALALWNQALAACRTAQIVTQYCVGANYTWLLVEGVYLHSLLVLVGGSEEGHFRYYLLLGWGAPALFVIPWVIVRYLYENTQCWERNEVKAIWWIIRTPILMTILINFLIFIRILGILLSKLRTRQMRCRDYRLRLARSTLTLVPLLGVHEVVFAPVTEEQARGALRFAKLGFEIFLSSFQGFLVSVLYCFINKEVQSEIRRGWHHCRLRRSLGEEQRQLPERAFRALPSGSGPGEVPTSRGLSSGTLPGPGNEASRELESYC
Method: as §1, §2

GIPR A207V = target: T3, GIPR A207V (Homo sapiens, UniProt P48546, A207V); assay: cAMP accumulation; format: cell-based
T3 construct: host or cells: HEK293
T3 sequence (P48546 22-466 A207V): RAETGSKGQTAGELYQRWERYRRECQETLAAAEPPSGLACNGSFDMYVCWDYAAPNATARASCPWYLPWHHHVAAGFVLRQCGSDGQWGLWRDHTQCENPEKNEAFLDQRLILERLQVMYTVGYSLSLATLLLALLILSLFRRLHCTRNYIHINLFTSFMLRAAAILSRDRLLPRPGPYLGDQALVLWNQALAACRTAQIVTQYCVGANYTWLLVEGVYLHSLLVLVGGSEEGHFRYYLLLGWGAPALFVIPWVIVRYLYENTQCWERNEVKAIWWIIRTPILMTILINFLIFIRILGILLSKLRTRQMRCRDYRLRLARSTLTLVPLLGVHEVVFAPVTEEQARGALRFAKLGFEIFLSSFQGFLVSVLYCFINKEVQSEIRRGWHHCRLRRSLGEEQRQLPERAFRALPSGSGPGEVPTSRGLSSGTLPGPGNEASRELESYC
Method: as §1, §2

GIPR R190Q = target: T4, GIPR R190Q (Homo sapiens, UniProt P48546, R190Q); assay: cAMP accumulation; format: cell-based
T4 construct: host or cells: HEK293
T4 sequence (P48546 22-466 R190Q): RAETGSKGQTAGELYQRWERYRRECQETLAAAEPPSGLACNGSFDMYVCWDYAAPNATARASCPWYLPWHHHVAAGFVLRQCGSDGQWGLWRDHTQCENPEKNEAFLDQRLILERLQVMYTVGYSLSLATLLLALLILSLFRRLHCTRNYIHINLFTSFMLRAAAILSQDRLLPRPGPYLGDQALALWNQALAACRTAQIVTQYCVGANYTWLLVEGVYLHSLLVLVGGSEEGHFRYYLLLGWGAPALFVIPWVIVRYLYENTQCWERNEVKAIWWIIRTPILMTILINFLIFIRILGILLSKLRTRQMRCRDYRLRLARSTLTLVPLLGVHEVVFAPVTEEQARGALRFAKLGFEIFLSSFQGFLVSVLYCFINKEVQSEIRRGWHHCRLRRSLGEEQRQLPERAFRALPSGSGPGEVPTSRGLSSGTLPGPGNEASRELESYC
Method: as §1, §2

GIPR A185V = target: T5, GIPR A185V (Homo sapiens, UniProt P48546, A185V); assay: cAMP accumulation; format: cell-based
T5 construct: host or cells: HEK293
T5 sequence (P48546 22-466 A185V): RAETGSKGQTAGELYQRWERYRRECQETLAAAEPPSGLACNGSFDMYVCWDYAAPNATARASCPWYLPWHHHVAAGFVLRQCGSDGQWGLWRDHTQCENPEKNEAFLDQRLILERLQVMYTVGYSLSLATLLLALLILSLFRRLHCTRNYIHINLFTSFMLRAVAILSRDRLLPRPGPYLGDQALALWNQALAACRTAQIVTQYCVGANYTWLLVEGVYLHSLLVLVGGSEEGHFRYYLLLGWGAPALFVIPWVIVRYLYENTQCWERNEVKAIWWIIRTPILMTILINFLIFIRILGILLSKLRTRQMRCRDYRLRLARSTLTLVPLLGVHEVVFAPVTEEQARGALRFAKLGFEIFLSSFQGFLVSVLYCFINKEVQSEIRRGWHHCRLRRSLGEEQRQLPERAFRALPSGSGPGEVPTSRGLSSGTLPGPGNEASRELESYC
Method: as §1, §2

Efficacy at 100pmol (cAMP) (GIPR P195R): 0.117
B2: P195R (protein)
chain: RAETGSKGQTAGELYQRWERYRRECQETLAAAEPPSGLACNGSFDMYVCWDYAAPNATARASCPWYLPWHHHVAAGFVLRQCGSDGQWGLWRDHTQCENPEKNEAFLDQRLILERLQVMYTVGYSLSLATLLLALLILSLFRRLHCTRNYIHINLFTSFMLRAAAILSRDRLLRRPGPYLGDQALALWNQALAACRTAQIVTQYCVGANYTWLLVEGVYLHSLLVLVGGSEEGHFRYYLLLGWGAPALFVIPWVIVRYLYENTQCWERNEVKAIWWIIRTPILMTILINFLIFIRILGILLSKLRTRQMRCRDYRLRLARSTLTLVPLLGVHEVVFAPVTEEQARGALRFAKLGFEIFLSSFQGFLVSVLYCFINKEVQSEIRRGWHHCRLRRSLGEEQRQLPERAFRALPSGSGPGEVPTSRGLSSGTLPGPGNEASRELESYC
In vitro groups (cAMP) (GIPR variants (groups) [1]): LoF_camp
percentage_camp (GIPR variants (groups) [1]): <50% cAMP
Beta, cAMP (GIPR variants (groups) [1]): 0.117
In vitro groups (β-arrestin) (GIPR variants (groups) [2]): WT-like_arr
Beta, Barr (GIPR variants (groups) [2]): 0.8561

Efficacy at 100pmol (cAMP) (GIPR A185V): 0.2646
B5: A185V (protein)
chain: RAETGSKGQTAGELYQRWERYRRECQETLAAAEPPSGLACNGSFDMYVCWDYAAPNATARASCPWYLPWHHHVAAGFVLRQCGSDGQWGLWRDHTQCENPEKNEAFLDQRLILERLQVMYTVGYSLSLATLLLALLILSLFRRLHCTRNYIHINLFTSFMLRAVAILSRDRLLPRPGPYLGDQALALWNQALAACRTAQIVTQYCVGANYTWLLVEGVYLHSLLVLVGGSEEGHFRYYLLLGWGAPALFVIPWVIVRYLYENTQCWERNEVKAIWWIIRTPILMTILINFLIFIRILGILLSKLRTRQMRCRDYRLRLARSTLTLVPLLGVHEVVFAPVTEEQARGALRFAKLGFEIFLSSFQGFLVSVLYCFINKEVQSEIRRGWHHCRLRRSLGEEQRQLPERAFRALPSGSGPGEVPTSRGLSSGTLPGPGNEASRELESYC
In vitro groups (cAMP) (GIPR variants (groups) [1]): LoF_camp
percentage_camp (GIPR variants (groups) [1]): <50% cAMP
Beta, cAMP (GIPR variants (groups) [1]): 0.2646
In vitro groups (β-arrestin) (GIPR variants (groups) [2]): WT-like_arr
Beta, Barr (GIPR variants (groups) [2]): 0.8905

The next lines start with the molecule.

B1: R183Q (protein)
chain: RAETGSKGQTAGELYQRWERYRRECQETLAAAEPPSGLACNGSFDMYVCWDYAAPNATARASCPWYLPWHHHVAAGFVLRQCGSDGQWGLWRDHTQCENPEKNEAFLDQRLILERLQVMYTVGYSLSLATLLLALLILSLFRRLHCTRNYIHINLFTSFMLQAAAILSRDRLLPRPGPYLGDQALALWNQALAACRTAQIVTQYCVGANYTWLLVEGVYLHSLLVLVGGSEEGHFRYYLLLGWGAPALFVIPWVIVRYLYENTQCWERNEVKAIWWIIRTPILMTILINFLIFIRILGILLSKLRTRQMRCRDYRLRLARSTLTLVPLLGVHEVVFAPVTEEQARGALRFAKLGFEIFLSSFQGFLVSVLYCFINKEVQSEIRRGWHHCRLRRSLGEEQRQLPERAFRALPSGSGPGEVPTSRGLSSGTLPGPGNEASRELESYC
Efficacy at 100pmol (cAMP) (GIPR R183Q): 0
In vitro groups (cAMP) (GIPR variants (groups) [1]): LoF_camp
percentage_camp (GIPR variants (groups) [1]): <50% cAMP
Beta, cAMP (GIPR variants (groups) [1]): 0
In vitro groups (β-arrestin) (GIPR variants (groups) [2]): LoF_arr
Beta, Barr (GIPR variants (groups) [2]): 0.03853

B3: A207V (protein)
chain: RAETGSKGQTAGELYQRWERYRRECQETLAAAEPPSGLACNGSFDMYVCWDYAAPNATARASCPWYLPWHHHVAAGFVLRQCGSDGQWGLWRDHTQCENPEKNEAFLDQRLILERLQVMYTVGYSLSLATLLLALLILSLFRRLHCTRNYIHINLFTSFMLRAAAILSRDRLLPRPGPYLGDQALVLWNQALAACRTAQIVTQYCVGANYTWLLVEGVYLHSLLVLVGGSEEGHFRYYLLLGWGAPALFVIPWVIVRYLYENTQCWERNEVKAIWWIIRTPILMTILINFLIFIRILGILLSKLRTRQMRCRDYRLRLARSTLTLVPLLGVHEVVFAPVTEEQARGALRFAKLGFEIFLSSFQGFLVSVLYCFINKEVQSEIRRGWHHCRLRRSLGEEQRQLPERAFRALPSGSGPGEVPTSRGLSSGTLPGPGNEASRELESYC
Efficacy at 100pmol (cAMP) (GIPR A207V): 0.1592
In vitro groups (cAMP) (GIPR variants (groups) [1]): LoF_camp
percentage_camp (GIPR variants (groups) [1]): <50% cAMP
Beta, cAMP (GIPR variants (groups) [1]): 0.1592
In vitro groups (β-arrestin) (GIPR variants (groups) [2]): WT-like_arr
Beta, Barr (GIPR variants (groups) [2]): 0.8334

B4: R190Q (protein)
chain: RAETGSKGQTAGELYQRWERYRRECQETLAAAEPPSGLACNGSFDMYVCWDYAAPNATARASCPWYLPWHHHVAAGFVLRQCGSDGQWGLWRDHTQCENPEKNEAFLDQRLILERLQVMYTVGYSLSLATLLLALLILSLFRRLHCTRNYIHINLFTSFMLRAAAILSQDRLLPRPGPYLGDQALALWNQALAACRTAQIVTQYCVGANYTWLLVEGVYLHSLLVLVGGSEEGHFRYYLLLGWGAPALFVIPWVIVRYLYENTQCWERNEVKAIWWIIRTPILMTILINFLIFIRILGILLSKLRTRQMRCRDYRLRLARSTLTLVPLLGVHEVVFAPVTEEQARGALRFAKLGFEIFLSSFQGFLVSVLYCFINKEVQSEIRRGWHHCRLRRSLGEEQRQLPERAFRALPSGSGPGEVPTSRGLSSGTLPGPGNEASRELESYC
Efficacy at 100pmol (cAMP) (GIPR R190Q): 0.008847
In vitro groups (cAMP) (GIPR variants (groups) [1]): LoF_camp
percentage_camp (GIPR variants (groups) [1]): <50% cAMP
Beta, cAMP (GIPR variants (groups) [1]): 0.008847
In vitro groups (β-arrestin) (GIPR variants (groups) [2]): LoF_arr
Beta, Barr (GIPR variants (groups) [2]): 0.1131
